In article PMC10641520 (The Journal of Biological Chemistry, 2023):

Legend:
AUC [1] = biological target: the molecule itself; test: AUC
AUC [2] = biological target: the molecule itself; test: AUC; remark: listed apart in the source

B1: Acinetobacter baumannii TIR domain protein (AbTir-TIR^wt, aa134-269) (domain or fragment, UniProt A0A009IHW8 134-269, looked up)
chain: EYDLFISHASEDKEDFVRPLAETLQQLGVNVWYDEFTLKVGDSLRQKIDSGLRNSKYGTVVLSTDFIKKDWTNYELDGLVAREMNGHKMILPIWHKITKNDVLDYSPNLADKVALNTSVNSIEEIAHQLADVILNR
AUC [1]
  Kd: 1400 nM
AUC [2]
  stoichiometry N: 2
